Source: the RNAGym collection of RNA variant scans (doi:10.1073/pnas.2313332121)
Variants at the floor of the assay were thinned out.

B1: TPR 5TU (parent)
chain: GGAUCUUCUCGAUCUAACAAAAAAGACAAAUCUGCCACAAAGCUUGAGAGCAUCUUCGGAUGCAGAGGCGGCAGCCUUCGGUGGCGCGAUAGCGCCAACGUUCUCAACUAUGACACGCAAAACGCGUGCUCCGUUGAAUGGAGUUUAUCAUG

Variants of: B1
Experiment: polymerase ribozyme fitness, log enrichment relative to wild type (log ratio); higher = more active; in vitro selection for triplet polymerase activity
Method in brief: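 Mutant libraries of each subunit of a heterodimeric triplet polymerase ribozyme were built by PCR and transcribed. Each library went through one round of in vitro selection in triplicate: annealing with biotinylated primer, partner subunit and triplets, frozen incubation at −7 °C, gel excision of extended constructs, streptavidin-bead capture and RT-PCR. Input and output libraries were Illumina-sequenced; only genotypes with ≥10 input reads and ≥1 read per output were kept. Fitness is log2(genotype enrichment/wild-type enrichment), using inverse-variance-weighted replicate averages.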

Variant	polymerase ribozyme fitness (log ratio)
GGAUCUUCUCGAUCUAACAAAAAAGACAAAUCUGCCACAAAGCUUGAGAGCAUCUUCGGAUGCAGAGGCGGCAGCCUUCGGUGGUGCGAUAGCGCCAACGUUCUCAACUAUGACACGCAAAACGCGCGCUCCGUUGAAUGGAGUUUAUCAUG [C85U U127C]	-2.51
GGAUCUUCUCGAUCUAACAAAAAAGACAAAUCUGCCACAAAGCUUGAGAGCAUCUUCGGAUGCAGAGGCGGCAGCCUUCGGUGGUGCGAUAGCGCCAACGUUCUCAACUAUGACACGCAAAACGCGAGCUCCGUUGAAUGGAGUUUAUCAUG [C85U U127A]	-3.36
GGAUCUUCUCGAUCUAACAAAAAAGACAAAUCUGCCACAAAGCUUGAGAGCAUCUUCGGAUGCAGAGGCGGCAGCCUUCGGUGGUGCGAUAGCGCCAACGAUCUCAACUAUGACACGCAAAACGCGUGCUCCGUUGAAUGGAGUUUAUCAUG [C85U U101A]	-0.791
GGAUCUUCUCGAUCUAACAAAAAAGACAAAUCUGCCACAAAGCUUGAGAGCAUCUUCGGAUGCAGAGGCGGCAGCCUUCGGUGGUGCGAUAGCGCCAACGGUCUCAACUAUGACACGCAAAACGCGUGCUCCGUUGAAUGGAGUUUAUCAUG [C85U U101G]	-1.15
GGAUCUUCUCGAUCUAACAAAAAAGACAAAUCUGCCACAAAGCUUGAGAGCAUCUUCGGAUGCAGAGGCGGCAGCCUUCGGUGGCACGAUAGCGCCAACGUUCUCAACUAUGACACGCAAAACGCGUGCUCCGUUGAAUGGAGUUUAUCAUG [G86A]	-0.877
GGAUCUUCUCGAUCUAACAAAAAAGACAAAUCUGCCACAAAGCUUGAGAGCAUCUUCGGAUGCAGAGGCGGCAGCCUUCGGUGGUGCGAUAGCGCCAACGUUCUCAACUAUGACACGCAAAACGCGUGCUCCGAUGAAUGGAGUUUAUCAUG [C85U U134A]	-3.04
GGAUCUUCUCGAUCUAACAAAAAAGACAAAUCUGCCACAAAGCUUGAGAGCAUCUUCGGAUGCAGAGGCGGCAGCCUUCGGUGGUGCGAUAGCGCCAACGUUCUCAACUAUGACACGCAAAACGCGUGCUCCGGUGAAUGGAGUUUAUCAUG [C85U U134G]	-2.89
GGAUCUUCUCGAUCUAACAAAAAAGACAAAUCUGCCACAAAGCUUGAGAGCAUCUUCGGAUGCAGAGGCGGCAGCCUUCGGUGGUGCGAUAGCGCCAACGUUCUCAACUAUGACACGCAAAACGCGCGCUCCGUUGAAUGGAGUAUAUCAUG [C85U U127C U145A]	-3.58
GGAUCUUCUCGAUCUAACAAAAAAGACAAAUCUGCCACAAAGCUUGAGAGCAUCUUCGGAUGCAGAGGCGGCAGCCUUCGGUGGUGCGAUAGCGCCAACGUUCUCAACUAUGACACGCAAAACGCGUGCUCCGUUGAAUGGAGUUUAACAUG [C85U U148A]	-3.08
GGAUCUUCUCGAUCUAACAAAAAAGACAAAUCUGCCACAAAGCUUGAGAGCAUCUUCGGAUGCAGAGGCGGCAGCCUUCGGUGGUGCGAUAGCGCCAACGUUCUCAACUAUGACACGCAAAACGCGUGCUCCGUUGAAUGGAGUUUACCAUG [C85U U148C]	-2.19
GGAUCUUCUCGAUCUAACAAAAAAGACAAAUCUGCCACAAAGCUUGAGAGCAUCUUCGGAUGCAGAGGCGGCAGCCUUCGGUGGUGCGAUAGCGCCAACGUUCUCAACUAUGACACGCAAAACGCGUGCUCCGUGGAAUGAAGUUUAUCAUG [C85U U135G G141A]	-3.54
GGAUCUUCUCGAUCUAACAAAAAAGACAAAUCUGCCACAAAGCUUGAGAGCAUCUUCGGAUGCAGAGGCGGCAGCCUUCGGUGGUGCGAUAGCGCCAACGGUCUAAACGGUGACACGCAAAACGCGUGCUCCGUUGAAUGGAGUUUAUCAUG [C85U U101G C105A U109G A110G]	-4.19
GGAUCUUCUCGAUCUAACAAAAAAGACAAAUCUGCCACAAAGCUUGAGAGCAUCUUCGGAUGCAGAGGCGGCAGCCUUCGGUGGUGCGACAGCGCCAACGUUCUCAACUAUGACACGCAAAACGCGUGCUCCGUUGAAUGGAGUUUAUCAUG [C85U U90C]	-3.89
GGAUCUUCUCGAUCUAACAAAAAAGACAAAUCUGCCACAAAGCUUGAGAGCAUCUUCGGAUGCAGAGGCGGCAGCCUUCGGUGGUGCGAUAGCGCCAACGUUCGCAACUAUGACACGCAAAACGCGUGCUCCGUUGAAUGGAGUUUAUCAUG [C85U U104G]	-0.929
GGAUCUUCUCGAUCUAACAAAAAAGACAAAUCUGCCACAAAGCUUGAGAGCAUCUUCGGAUGCAGAGGCGGCAGCCUUCGGUGGUGCGAUAGCGCCAACGUUCUCAACUAUGACACGCAAAACGCGUGCUCCGCUGAAUGGAGAUUAUAAUG [C85U U134C U144A C149A]	-4.1
GGAUCUUCUCGAUCUAACAAAAAAGACAAAUCUGCCACAAAGCUUGAGAGCAUCUUCGGAUGCAGAGGCGGCAGCCUUCGGUGGCACGAUAGCGCCAACGUUCUCAACUUUGACACGCAAAACGCGUGCUCCGUUGAGUGGAGUUUAUCAUG [G86A A110U A138G]	≤ -4.2
GGAUCUUCUCGAUCUAACAAAAAAGACAAAUCUGCCACAAAGCUUGAGAGCAUCUUCGGAUGCAGAGGCGGCAGCCUUCGGUGGCACGAUAGCGCCAACGUUCUCAACUGUGACACGCAAAACGCGUGCUCCGUUGAAUGGAGUAUAUGAUG [G86A A110G U145A C149G]	≤ -4.2
GGAUCUUCUCGAUCUAACAAAAAAGACAAAUCUGCCACAAAGCUUGAGAGCAUCUUCGGAUGCAGAGGCGGCAGCCUUCGGUGGCACGAUAGCGCCAACGUUCUCAACUAUGACACGCAAAGCGCGUGCUCCGUUGAAUGGAGUUUAUCAUG [G86A A122G]	-1.11
GGAUCUUCUCGAUCUAACAAAAAAGACAAAUCUGCCACAAAGCUUGAGAGCAUCUUCGGAUGCAGAGGCGGCAGCCUUCGGUGGCACGUUAGCGCCAACGUUCUUAACUAUGACACGCAAAACGCGUGCUCCGAUGAAUGGAGUUUAUCAUG [G86A A89U C105U U134A]	-3.77

Variant	polymerase ribozyme fitness (log ratio)
GGAUCUUCUCGAUCUAACAAAAAAGACAAAUCUGCCACAAAGCUUGAGAGCAUCUUCGGAUGCAGAGGCGGCAGCCUUCGGUGGCACGAUAGCGCCAACGUUCUCAUCUAUGACACGCAAAACGCGUGCUCCGUUGAAUGGAGUUUAUCAUG [G86A A107U]	-3.39
GGAUCUUCUCGAUCUAACAAAAAAGACAAAUCUGCCACAAAGCUUGAGAGCAUCUUCGGAUGCAGAGGCGGCAGCCUUCGGUGGUGCGAUAGCGCCAACGUUCUCAACUAUGACACGCAAAACGCGUGCUCCGUUGAAUGGAGUUGAUCAUG [C85U U146G]	-0.713
GGAUCUUCUCGAUCUAACAAAAAAGACAAAUCUGCCACAAAGCUUGAGAGCAUCUUCGGAUGCAGAGGCGGCAGCCUUCGGUGGUGCGAUAGCGCCAACGUUCUCAACUAUGACACGCAAAACGCGUGCUCCGUUGAAUGGAGUUAAUCAUG [C85U U146A]	-0.167
GGAUCUUCUCGAUCUAACAAAAAAGACAAAUCUGCCACAAAGCUUGAGAGCAUCUUCGGAUGCAGAGGCGGCAGCCUUCGGUGGCACGUUAGCGCCAACGUUCUCAACUAUGACACGCAAAACGCGUGCUCCGUUGAAUGGAGUUUAUCAUG [G86A A89U]	-1.96
GGAUCUUCUCGAUCUAACAAAAAAGACAAAUCUGCCACAAAGCUUGAGAGCAUCUUCGGAUGCAGAGGCGGCAGCCUUCGGUGGCACGUUAGCGCCAACGUUCUCAACUAUGACACGCAAAAUGCGUGCUCCGUUGAAUGGAGUUUAUCAUG [G86A A89U C123U]	-2.1
GGAUCUUCUCGAUCUAACAAAAAAGACAAAUCUGCCACAAAGCUUGAGAGCAUCUUCGGAUGCAGAGGCGGCAGCCUUCGGUGGUGCGAUAGCGCCAACGUUCUCAACUAUGACACGCAAAACGCGUGCUCCGUUGAAGGGAGUUUAUCAUG [C85U U139G]	-0.28
GGAUCUUCUCGAUCUAACAAAAAAGACAAAUCUGCCACAAAGCUUGAGAGCAUCUUCGGAUGCAGAGGCGGCAGCCUUCGGUGGUGCGAUAGCGCCAACGUUCUCAACUAUGACACGCAAAACGCGUGCUCCGUUGAACGGAGUUUAUCAUG [C85U U139C]	-3.16
GGAUCUUCUCGAUCUAACAAAAAAGACAAAUCUGCCACAAAGCUUGAGAGCAUCUUCGGAUGCAGAGGCGGCAGCCUUCGGUGGUGCGAUAGCGCCAACGUUCUCAACUAUGACACGCAAAACGCGUGCUCCGUUGAAUGGAGUUUAUCAUU [C85U G152U]	-3.73
GGAUCUUCUCGAUCUAACAAAAAAGACAAAUCUGCCACAAAGCUUGAGAGCAUCUUCGGAUGCAGAGGCGGCAGCCUUCGGUGGUGCGAUAGCGCCAACGUUCUCAACUAUGACACGCAAAACGCGUGCUCCGUUGAAUGGAAUUUAUCAUG [C85U G143A]	0.273
GGAUCUUCUCGAUCUAACAAAAAAGACAAAUCUGCCACAAAGCUUGAGAGCAUCUUCGGAUGCAGAGGCGGCAGCCUUCGGUGGUGCGAUAGCGCCAACGUUCUCAACUAUGACACGCAAAACGCGUGCUCCGUUGAAUGGAGUGUAUCAUG [C85U U145G]	-2
GGAUCUUCUCGAUCUAACAAAAAAGACAAAUCUGCCACAAAGCUUGAGAGCAUCUUCGGAUGCAGAGGCGGCAGCCUUCGGUGGUGCGAUAGCGCCAACGUUCUCAACUAUGACACGCAAAACGCGUGCUCCGUUGAAUGGAGUAUAUCAUG [C85U U145A]	-0.468
GGAUCUUCUCGAUCUAACAAAAAAGACAAAUCUGCCACAAAGCUUGAGAGCAUCUUCGGAUGCAGAGGCGGCAGCCUUCGGUGGCACGAUAGCGCCAACGUUCUCAACUUUGACACGCAAAACGCGUGCUCCGUUGAAUGGAGUUUAUCAUG [G86A A110U]	≤ -4.2
GGAUCUUCUCGAUCUAACAAAAAAGACAAAUCUGCCACAAAGCUUGAGAGCAUCUUCGGAUGCAGAGGCGGCAGCCUUCGGUGGCACGAUAGCGCCAACGUUCUCAACUAUGCCACGCAAAACGCGUGCUCCGUUGAAUGGAGUUUAUCAUG [G86A A113C]	-3.53
GGAUCUUCUCGAUCUAACAAAAAAGACAAAUCUGCCACAAAGCUUGAGAGCAUCUUCGGAUGCAGAGGCGGCAGCCUUCGGUGGUGCGAUAGCGCCAACGUUCUCAACUAUGACACGCAAAACGCGUGCUCCGUUGAAUGUAGUUUAUCAUG [C85U G141U]	1.07
GGAUCUUCUCGAUCUAACAAAAAAGACAAAUCUGCCACAAAGCUUGAGAGCAUCUUCGGAUGCAGAGGCGGCAGCCUUCGGUGGUGCGAUAGCGCCAACGUUCUCAACUAUGACACGCAAAACGCGUGCUCCGUUGAAUGCAGUUUAUCAUG [C85U G141C]	-0.765
GGAUCUUCUCGAUCUAACAAAAAAGACAAAUCUGCCACAAAGCUUGAGAGCAUCUUCGGAUGCAGAGGCGGCAGCCUUCGGUGGUGCGAUAGCGCCAACGUUCUCAACUAUGACACGCAAAACGCGUGCUCCGUUGAAUAGAGUUUAUCAUG [C85U G140A]	-3.24
GGAUCUUCUCGAUCUAACAAAAAAGACAAAUCUGCCACAAAGCUUGAGAGCAUCUUCGGAUGCAGAGGCGGCAGCCUUCGGUGGUGCGAUAGCGCCAACGUUCUCAACUAUGACACGCAAAACGCGUGCUCCGUUGAAUGGAGUUUAUCAGG [C85U U151G]	-4.14
GGAUCUUCUCGAUCUAACAAAAAAGACAAAUCUGCCACAAAGCUUGAGAGCAUCUUCGGAUGCAGAGGCGGCAGCCUUCGGUGGUGCGAUAGCGCCAACGUUCUCAACUAUGACACGCAAAACGCGUGCGCCGUUGAAUGGAGUUUAUCAUG [C85U U130G]	-3.71
GGAUCUUCUCGAUCUAACAAAAAAGACAAAUCUGCCACAAAGCUUGAGAGCAUCUUCGGAUGCAGAGGCGGCAGCCUUCGGUGGUGCGAUAGCGCCAACGUUCUCAACUAUGACACGCAAAACGCGUGCUCCGUUGAAUGGAGUUGACCAUG [C85U U146G U148C]	-2.24
